Data: publication doi:10.1101/2021.06.03.446896
Several values for one entry are separate records, joined by “and”; a condition that tells them apart may be missing. Equal values may be shown once.

T1: dMi-2 (118-238) (UniProt O97159 118-238)
T1 sequence: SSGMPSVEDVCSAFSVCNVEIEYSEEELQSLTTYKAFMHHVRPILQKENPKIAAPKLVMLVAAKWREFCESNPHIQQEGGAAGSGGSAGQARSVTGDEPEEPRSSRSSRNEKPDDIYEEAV

B1: Hsp70Aa #5 RNA (ssRNA)
RNA: GCAGGCCGAGAUUGAUCGCAUGGUGAACGAGGCUGAAAAGUACGCCGACGAGGACGAGAAGCAUCGCCAGCGAAUAACCUCUAGAAAUGCCCUGGAGAGC
B2: (GA)20 RNA (ssRNA)
RNA: GAGAGAGAGAGAGAGAGAGAGAGAGAGAGAGAGAGAGAGA
B3: Hsp70Aa #6 RNA (ssRNA)
RNA: CCUACGGACUGGACAAGAACCUCAAGGGUGAGCGCAAUGU
B4: Hsp70Aa dsRNA (dsRNA)
RNA 1: not shown
RNA 2: not shown
B5: Pgant35a #4 RNA (ssRNA)
RNA: CUGCAUGUGCCGGGCGAGGAGUCCAAGAAGUCGGCGGCAGCGCCCAUCUUUCAGCCUUGGCACUCGCGAAAACGUAACUAUGUCGACACAUUCCAGCUGC
B6: Pgant35a #3 RNA (ssRNA)
RNA: GUCAUUGGUGCACGCGAGGCCGUGGGCGAUGUGCUCGUCUUCCUCGACUCGCAUAUCGAGGUCAAUCAGCAGUGGCUGGAGCCGCUGCUGCGCCUCAUCA
B7: Pgant35a #2 RNA (ssRNA)
RNA: UCUUCCGGGCGAUCCCAGACACUCGGCACAAGGUGUGCGAUCGCCAGGAGACCACGGAAGCGGAAAAUCUGCCCCAGGCCUCCAUAGUCAUGUGCUUCUA
B8: Pgant35a #5 RNA (ssRNA)
RNA: AAGUGCCACGAGAUGCUCGGCGAUCAGCAGUGGCGGCACACCCGCAACGCCAACAGUCCCGUCUACAACAUGGCCAAAGGCACCUGCCUCCGGGCAGCUG
B9: Pgant35a #1 RNA (ssRNA)
RNA: UCGGCAGGAUGGAGGAUCGACGAAGGGAACGCAACGCCACGGGCCGAGCUGAGCUACCAGGCCAGGGUCACCGUCGGAUGCACUCCAAAUGCCAGCAUUA
B10: Hsp70Aa dsDNA (dsDNA)
DNA 1: not shown
DNA 2: not shown
B11: Hsp70Aa #1 RNA (ssRNA)
RNA: CUCACACACAAUGCCUGCUAUUGGAAUCGAUCUGGGCACCACCUACUCCUGCGUGGGUGUCUACCAACAUGGCAAGGUGGAGAUUAUCGCCAACGACCAG
B12: (G4A4)4 RNA (structured_RNA)
RNA: AAAAAAGGGGAAAAGGGGAAAAGGGGAAAAGGGGAAAAAA
B13: Hsp70Aa #2 RNA (ssRNA)
RNA: GAGGACAUGAAGCACUGGCCUUUCAAGGUUGUAAGCGACGGCGGAAAGCCCAAGAUCGGGGUGGAGUAUAAGGGUGAGUCCAAGAGAUUUGCCCCCGAGG

Columns and labels:
Experiment in all cases: EMSA
dMi-2 WT [1] = target: T2, dMi-2 WT (UniProt O97159 1-1982)
T2 sequence (O97159 whole entry): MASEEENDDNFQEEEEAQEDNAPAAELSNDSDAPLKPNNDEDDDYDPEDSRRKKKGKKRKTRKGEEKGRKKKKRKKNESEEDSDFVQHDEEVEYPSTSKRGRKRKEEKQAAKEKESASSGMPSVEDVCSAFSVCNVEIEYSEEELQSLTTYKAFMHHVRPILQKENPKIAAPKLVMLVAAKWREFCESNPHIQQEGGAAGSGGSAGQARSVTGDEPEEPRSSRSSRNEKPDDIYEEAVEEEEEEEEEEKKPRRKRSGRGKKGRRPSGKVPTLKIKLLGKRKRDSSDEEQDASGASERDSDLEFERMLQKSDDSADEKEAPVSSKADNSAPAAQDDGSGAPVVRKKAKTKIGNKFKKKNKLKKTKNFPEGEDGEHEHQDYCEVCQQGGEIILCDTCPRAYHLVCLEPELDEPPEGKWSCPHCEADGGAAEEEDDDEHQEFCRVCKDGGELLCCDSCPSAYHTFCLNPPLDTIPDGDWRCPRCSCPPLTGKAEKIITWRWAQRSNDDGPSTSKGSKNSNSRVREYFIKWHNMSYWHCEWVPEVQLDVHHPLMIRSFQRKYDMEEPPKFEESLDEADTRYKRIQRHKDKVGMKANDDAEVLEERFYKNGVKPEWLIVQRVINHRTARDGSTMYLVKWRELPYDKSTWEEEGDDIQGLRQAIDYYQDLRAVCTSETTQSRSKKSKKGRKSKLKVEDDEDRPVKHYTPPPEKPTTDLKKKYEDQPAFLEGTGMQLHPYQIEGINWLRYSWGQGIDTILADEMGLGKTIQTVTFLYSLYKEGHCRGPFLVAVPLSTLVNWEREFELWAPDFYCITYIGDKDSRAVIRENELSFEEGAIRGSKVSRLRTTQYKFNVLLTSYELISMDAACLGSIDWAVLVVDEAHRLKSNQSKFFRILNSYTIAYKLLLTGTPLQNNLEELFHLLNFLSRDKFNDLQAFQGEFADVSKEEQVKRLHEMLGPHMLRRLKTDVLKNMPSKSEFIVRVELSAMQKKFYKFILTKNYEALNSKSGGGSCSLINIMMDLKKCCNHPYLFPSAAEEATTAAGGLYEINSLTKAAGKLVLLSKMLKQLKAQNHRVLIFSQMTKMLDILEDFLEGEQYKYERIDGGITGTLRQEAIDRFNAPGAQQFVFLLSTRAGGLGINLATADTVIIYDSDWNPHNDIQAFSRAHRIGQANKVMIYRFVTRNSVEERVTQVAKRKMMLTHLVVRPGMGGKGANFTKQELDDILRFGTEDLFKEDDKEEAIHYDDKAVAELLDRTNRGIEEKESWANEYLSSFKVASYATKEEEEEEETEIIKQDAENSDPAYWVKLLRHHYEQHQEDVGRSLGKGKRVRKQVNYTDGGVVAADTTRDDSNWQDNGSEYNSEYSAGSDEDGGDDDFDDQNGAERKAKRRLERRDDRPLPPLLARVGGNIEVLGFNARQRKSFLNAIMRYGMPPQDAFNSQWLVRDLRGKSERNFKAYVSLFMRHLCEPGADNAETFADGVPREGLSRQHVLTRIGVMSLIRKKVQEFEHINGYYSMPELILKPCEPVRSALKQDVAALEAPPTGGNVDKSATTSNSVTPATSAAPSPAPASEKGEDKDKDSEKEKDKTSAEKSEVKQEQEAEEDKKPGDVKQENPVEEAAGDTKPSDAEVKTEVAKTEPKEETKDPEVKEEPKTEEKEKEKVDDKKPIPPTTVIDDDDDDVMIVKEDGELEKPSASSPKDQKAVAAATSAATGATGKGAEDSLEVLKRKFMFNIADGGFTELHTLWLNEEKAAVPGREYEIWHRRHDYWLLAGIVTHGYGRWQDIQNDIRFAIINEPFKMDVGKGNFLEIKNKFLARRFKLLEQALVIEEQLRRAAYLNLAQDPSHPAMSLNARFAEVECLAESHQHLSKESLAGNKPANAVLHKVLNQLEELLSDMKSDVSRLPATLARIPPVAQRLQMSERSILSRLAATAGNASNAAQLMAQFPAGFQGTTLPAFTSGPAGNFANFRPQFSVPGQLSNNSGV

dMi-2 WT [2] = target: T2, dMi-2 WT; remark: listed apart in the source
dMi-2 (118-238) = target: T1, dMi-2 (118-238)

Binder | binding result (dMi-2 WT [1]) | Kd (dMi-2 WT [2]) | binding result (dMi-2 (118-238))
B1 | binds |  | 
B2 |  | 70 nM and 80 nM | 
B3 |  | 310 ± 100 nM | no binding
B4 |  | 860 ± 100 nM | 
B5 | binds |  | 
B6 |  | 630 ± 280 nM | 
B7 | binds |  | 
B8 | binds |  | 
B9 | binds |  | 
B10 |  | 820 ± 100 nM | 
B11 | binds |  | 
B12 |  | 80 nM | 
B13 | binds |  | 
